Laboratory results from PMC9214875.

B1: MerTK: N294Q (protein)
parent chain: MGPAPLPLLLGLFLPALWRRAITEAREEAKPYPLFPGPFPGSLQTDHTPLLSLPHASGYQPALMFSPTQPGRPHTGNVAIPQVTSVESKPLPPLAFKHTVGHIILSEHKGVKFNCSISVPNIYQDTTISWWKDGKELLGAHHAITQFYPDDEVTAIIASFSITSVQRSDNGSYICKMKINNEEIVSDPIYIEVQGLPHFTKQPESMNVTRNTAFNLTCQAVGPPEPVNIFWVQNSSRVNEQPEKSPSVLTVPGLTEMAVFSCEAHNDKGLTVSKGVQINIKAIPSPPTEVSIRNSTAHSILISWVPGFDGYSPFRNCSIQVKEADPLSNGSVMIFNTSALPHLYQIKQLQALANYSIGVSCMNEIGWSAVSPWILASTTEGAPSVAPLNVTVFLNESSDNVDIRWMKPPTKQQDGELVGYRISHVWQSAGISKELLEEVGQNGSRARISVQVHNATCTVRIAAVTRGGVGPFSDPVKIFIPAHGWVDYAPSSTPAPGNADPVLIIFGCFCGFILIGLILYISLAIRKRVQETKFGNAFTEEDSELVVNYIAKKSFCRRAIELTLHSLGVSEELQNKLEDVVIDRNLLILGKILGEGEFGSVMEGNLKQEDGTSLKVAVKTMKLDNSSQREIEEFLSEAACMKDFSHPNVIRLLGVCIEMSSQGIPKPMVILPFMKYGDLHTYLLYSRLETGPKHIPLQTLLKFMVDIALGMEYLSNRNFLHRDLAARNCMLRDDMTVCVADFGLSKKIYSGDYYRQGRIAKMPVKWIAIESLADRVYTSKSDVWAFGVTMWEIATRGMTPYPGVQNHEMYDYLLHGHRLKQPEDCLDELYEIMYSCWRTDPLDRPTFSVLRLQLEKLLESLPDVRNQADVIYVNTQLLESSEGLAQGSTLAPLDLNIDPDSIIASCTPRAAISVVTAEVHDSKPHEGRYILNGGSEEWEDLTSAPSAAVTAEKNSVLPGERLVRNGVSWSHSSMLPLGSSLPDELLFADDSSEGSEVLM
B2: MerTK: glucose deprivation (protein)
parent chain: B1 parent chain
B3: MerTK: TM (protein)
parent chain: B1 parent chain
B4: MerTK: N454Q (protein)
parent chain: B1 parent chain

Tests used:
[1] = Blue Native PAGE, MHCC97H and HCCLM3; details: glycan lost; control: wild type
[2] = cycloheximide chase, Western blot, MHCC97H; details: glycan lost; control: wild type (G-MerTK)
[3] = nuclear/cytoplasmic fractionation, Western blot, LO2 and MHCC97H; details: glycan lost; control: wild type
[4] = Blue Native PAGE, endogenous MerTK, MHCC97H; details: glycan lost; control: untreated / with glucose
[5] = MG132 rescue of MerTK level, Western blot; details: glycan lost; control: no TM
[6] = MerTK IP, anti-ubiquitin blot, MHCC97H and HCCLM3; details: glycan lost; control: untreated
[7] = nuclear/cytoplasmic fractionation, Western blot, MHCC97H; details: glycan lost; control: untreated

| Protein | oligomerisation [1] | degradation_or_half_life [2] | localisation_or_trafficking [3] | oligomerisation [4] | degradation_or_half_life [5] | other: ubiquitination [6] | localisation_or_trafficking [7] |
| --- | --- | --- | --- | --- | --- | --- | --- |
| B1 | decreases | decreases | increases | – | – | – | – |
| B2 | – | – | – | abolishes | – | – | – |
| B3 | – | – | – | abolishes | decreases | increases | increases |
| B4 | decreases | decreases | increases | – | – | – | – |
